According to the supplement of paper PMC10567573:

B1: MLL5 (parent)
chain: HDDGYMICCDKCSVWQHIDCMGID

Variants of: B1
Experiment: protein stability index of a GFP-peptide fusion (GPS, HEK-293T) (PSI 1-6); higher = more stable
Details: c terminus: a fixed tail appended
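Further: lentivirally expressed fusions sorted by FACS into six bins by GFP to DsRed ratio, PSI derived from sequencing read proportions per bin multiplied by bin number.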

Variant	protein stability index
HDDGYSICCDKCSVWQHIDCMGID	2.91
HDDGYFICCDKCSVWQHIDCMGID	2.22
HDDGYCICCDKCSVWQHIDCMGID	3.2
HDDGYGICCDKCSVWQHIDCMGID	2.4
HDDGYDICCDKCSVWQHIDCMGID	2.96
HDDGYIICCDKCSVWQHIDCMGID	2.65
HDDGYKICCDKCSVWQHIDCMGID	2.43
HDDGYQICCDKCSVWQHIDCMGID	2.46
HDDGYLICCDKCSVWQHIDCMGID	2.59
HDDGYNICCDKCSVWQHIDCMGID	3.14
HDDGYRICCDKCSVWQHIDCMGID	3.35
HDDGYTICCDKCSVWQHIDCMGID	2.41
HDDGYVICCDKCSVWQHIDCMGID	3.1
HDDGYPICCDKCSVWQHIDCMGID	2.96
HDDGYEICCDKCSVWQHIDCMGID	2.79
HDDGYAICCDKCSVWQHIDCMGID	3.37
HDDGYHICCDKCSVWQHIDCMGID	4.05
HDDGYYICCDKCSVWQHIDCMGID	2.14
HDDGYWICCDKCSVWQHIDCMGID	2
HDDGYMIHCDKCSVWQHIDCMGID	2.37
HDDGYMIQCDKCSVWQHIDCMGID	2.96
HDDGYMIPCDKCSVWQHIDCMGID	3.12
HDDGYMIFCDKCSVWQHIDCMGID	1.56
HDDGYMIDCDKCSVWQHIDCMGID	3.19

Variant	protein stability index
HDDGYMINCDKCSVWQHIDCMGID	2.43
HDDGYMIICDKCSVWQHIDCMGID	1.9
HDDGYMILCDKCSVWQHIDCMGID	2.46
HDDGYMIKCDKCSVWQHIDCMGID	2.25
HDDGYMIACDKCSVWQHIDCMGID	3.27
HDDGYMIGCDKCSVWQHIDCMGID	2.59
HDDGYMIMCDKCSVWQHIDCMGID	1.68
HDDGYMIECDKCSVWQHIDCMGID	2.73
HNDGYMICCDKCSVWQHIDCMGID	1.71
HCDGYMICCDKCSVWQHIDCMGID	1.89
HFDGYMICCDKCSVWQHIDCMGID	2.23
HKDGYMICCDKCSVWQHIDCMGID	2.69
HEDGYMICCDKCSVWQHIDCMGID	2.53
HHDGYMICCDKCSVWQHIDCMGID	2.87
HVDGYMICCDKCSVWQHIDCMGID	2.02
HMDGYMICCDKCSVWQHIDCMGID	1.92
HIDGYMICCDKCSVWQHIDCMGID	2.87
HTDGYMICCDKCSVWQHIDCMGID	2.99
HGDGYMICCDKCSVWQHIDCMGID	2.05
HQDGYMICCDKCSVWQHIDCMGID	2.04
HSDGYMICCDKCSVWQHIDCMGID	2.16
HRDGYMICCDKCSVWQHIDCMGID	2.02
HYDGYMICCDKCSVWQHIDCMGID	1.93
HADGYMICCDKCSVWQHIDCMGID	1.76

Variant	protein stability index
HPDGYMICCDKCSVWQHIDCMGID	2.16
HWDGYMICCDKCSVWQHIDCMGID	1.84
HLDGYMICCDKCSVWQHIDCMGID	3.26
HDDGFMICCDKCSVWQHIDCMGID	1.74
HDDGLMICCDKCSVWQHIDCMGID	2.78
HDDGMMICCDKCSVWQHIDCMGID	2.83
HDDGPMICCDKCSVWQHIDCMGID	2.9
HDDGDMICCDKCSVWQHIDCMGID	3.14
HDDGIMICCDKCSVWQHIDCMGID	2.98
HDDGEMICCDKCSVWQHIDCMGID	3.39
HDDGTMICCDKCSVWQHIDCMGID	3.96
HDDGKMICCDKCSVWQHIDCMGID	3.53
HDDGCMICCDKCSVWQHIDCMGID	3.04
HDDGHMICCDKCSVWQHIDCMGID	3.79
HDDGGMICCDKCSVWQHIDCMGID	3.53
HDDGRMICCDKCSVWQHIDCMGID	3.42
HDDGSMICCDKCSVWQHIDCMGID	2.84
HDDGWMICCDKCSVWQHIDCMGID	2.03
HDDGAMICCDKCSVWQHIDCMGID	3.46
HDDGQMICCDKCSVWQHIDCMGID	3.19
HDDGNMICCDKCSVWQHIDCMGID	3.3
HDDGVMICCDKCSVWQHIDCMGID	2.96
HDDTYMICCDKCSVWQHIDCMGID	2.04
HDDVYMICCDKCSVWQHIDCMGID	2.1

Variant	protein stability index
HDDHYMICCDKCSVWQHIDCMGID	2.29
HDDYYMICCDKCSVWQHIDCMGID	2.48
HDDDYMICCDKCSVWQHIDCMGID	2.61
HDDNYMICCDKCSVWQHIDCMGID	2.05
HDDWYMICCDKCSVWQHIDCMGID	2.56
HDDAYMICCDKCSVWQHIDCMGID	2.04
HDDLYMICCDKCSVWQHIDCMGID	1.64
HDDSYMICCDKCSVWQHIDCMGID	2.38
HDDMYMICCDKCSVWQHIDCMGID	1.74
HDDPYMICCDKCSVWQHIDCMGID	2.69
HDDRYMICCDKCSVWQHIDCMGID	2.73
HDDEYMICCDKCSVWQHIDCMGID	2.99
HDDKYMICCDKCSVWQHIDCMGID	2.16
HDDIYMICCDKCSVWQHIDCMGID	1.51
HDDCYMICCDKCSVWQHIDCMGID	2.53
HDDFYMICCDKCSVWQHIDCMGID	1.94
HDDQYMICCDKCSVWQHIDCMGID	2.2
HDFGYMICCDKCSVWQHIDCMGID	1.53
HDLGYMICCDKCSVWQHIDCMGID	1.01
HDEGYMICCDKCSVWQHIDCMGID	2.95
HDVGYMICCDKCSVWQHIDCMGID	2.75
HDTGYMICCDKCSVWQHIDCMGID	2.41
